Patent US20210246166A1 (Bayer, published 2021)
Bridge positions count the residues as written; N and C are the ends. Square brackets hold non-standard residues; d marks the D form. Ends that are not written are not given here. Pro(4-spirocPr) = O=C(O)[C@@H]1CC2(CC2)CN1; PEG8 = NCCOCCOCCOCCOCCOCCOCCOCCOCCC(=O)O; NMeI = CC[C@H](C)[C@H](NC)C(=O)O; tBuAla = CC(C)(C)C[C@H](N)C(=O)O; Pen = CC(C)(S)[C@H](N)C(=O)O; NMeC = CN[C@@H](CS)C(=O)O; Orn = NCCC[C@H](N)C(=O)O; Abu = CC[C@H](N)C(=O)O; Sar = CNCC(=O)O

T1: recombinant rat MASP1 active protease (amino acids 302-704, C-terminal His Tag) (rat, UniProt Q8CHN8 302-704)
T1 sequence: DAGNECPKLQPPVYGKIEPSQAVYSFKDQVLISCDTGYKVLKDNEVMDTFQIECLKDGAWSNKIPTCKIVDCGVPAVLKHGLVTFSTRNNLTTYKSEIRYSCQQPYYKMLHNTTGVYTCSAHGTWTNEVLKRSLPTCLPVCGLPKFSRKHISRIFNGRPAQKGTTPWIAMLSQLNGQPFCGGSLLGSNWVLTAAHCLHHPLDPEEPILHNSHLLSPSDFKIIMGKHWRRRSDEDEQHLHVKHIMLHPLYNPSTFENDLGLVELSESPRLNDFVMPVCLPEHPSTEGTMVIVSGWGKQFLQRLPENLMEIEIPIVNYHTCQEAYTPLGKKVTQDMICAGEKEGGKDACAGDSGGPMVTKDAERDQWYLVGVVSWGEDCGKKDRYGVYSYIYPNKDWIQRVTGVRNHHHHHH

B1: Example 37: AIC+SRS-((tBu)A)-PPIC+I-NH2 (peptide)
peptide: AICSRS[tBuAla]PPICI-NH2
modifications: disulfide 3-11; N-terminus assumed
SMILES: CC[C@H](C)[C@H](NC(=O)[C@@H]1CSSC[C@H](NC(=O)[C@@H](NC(=O)[C@H](C)N)[C@@H](C)CC)C(=O)N[C@@H](CO)C(=O)N[C@@H](CCCNC(=N)N)C(=O)N[C@@H](CO)C(=O)N[C@@H](CC(C)(C)C)C(=O)N2CCC[C@H]2C(=O)N2CCC[C@H]2C(=O)N[C@@H]([C@@H](C)CC)C(=O)N1)C(N)=O
B2: Example 59: Ac-G-((N-Me)I)-C+SRSLPPIC+IPD-OH (peptide)
peptide: Ac-G[NMeI]CSRSLPPICIPD-OH
modifications: disulfide 3-11
SMILES: CC[C@H](C)[C@@H]1NC(=O)[C@@H]2CCCN2C(=O)[C@@H]2CCCN2C(=O)[C@H](CC(C)C)NC(=O)[C@H](CO)NC(=O)[C@H](CCCNC(=N)N)NC(=O)[C@H](CO)NC(=O)[C@@H](NC(=O)[C@H]([C@@H](C)CC)N(C)C(=O)CNC(C)=O)CSSC[C@@H](C(=O)N[C@H](C(=O)N2CCC[C@H]2C(=O)N[C@@H](CC(=O)O)C(=O)O)[C@@H](C)CC)NC1=O
B3: Example 36: AIC+SRSLP-((6S)-5-Azaspiro[2.4]heptane-6-carboxylic acid)-I-(Pen)+IPD-OH (peptide)
peptide: AICSRSLP[Pro(4-spirocPr)]I[Pen]IPD-OH
modifications: disulfide 3-11; N-terminus assumed
SMILES: CC[C@H](C)[C@H](NC(=O)[C@H](C)N)C(=O)N[C@H]1CSSC(C)(C)[C@@H](C(=O)N[C@H](C(=O)N2CCC[C@H]2C(=O)N[C@@H](CC(=O)O)C(=O)O)[C@@H](C)CC)NC(=O)[C@H]([C@@H](C)CC)NC(=O)[C@@H]2CC3(CC3)CN2C(=O)[C@@H]2CCCN2C(=O)[C@H](CC(C)C)NC(=O)[C@H](CO)NC(=O)[C@H](CCCNC(=N)N)NC(=O)[C@H](CO)NC1=O
B4: Example 86: AIC+SRS-((tBu)A)-PPI-((N-Me)C)+IPD-OH (peptide)
peptide: AICSRS[tBuAla]PPI[NMeC]IPD-OH
modifications: disulfide 3-11; N-terminus assumed
SMILES: CC[C@H](C)[C@H](NC(=O)[C@H](C)N)C(=O)N[C@H]1CSSC[C@@H](C(=O)N[C@H](C(=O)N2CCC[C@H]2C(=O)N[C@@H](CC(=O)O)C(=O)O)[C@@H](C)CC)N(C)C(=O)[C@H]([C@@H](C)CC)NC(=O)[C@@H]2CCCN2C(=O)[C@@H]2CCCN2C(=O)[C@H](CC(C)(C)C)NC(=O)[C@H](CO)NC(=O)[C@H](CCCNC(=N)N)NC(=O)[C@H](CO)NC1=O
B5: Example 38: RIC+SRS-((tBu)A)-PPI-((N-Me)C)+I-NH2 (peptide)
peptide: RICSRS[tBuAla]PPI[NMeC]I-NH2
modifications: disulfide 3-11; N-terminus assumed
SMILES: CC[C@H](C)[C@H](NC(=O)[C@@H]1CSSC[C@H](NC(=O)[C@@H](NC(=O)[C@@H](N)CCCNC(=N)N)[C@@H](C)CC)C(=O)N[C@@H](CO)C(=O)N[C@@H](CCCNC(=N)N)C(=O)N[C@@H](CO)C(=O)N[C@@H](CC(C)(C)C)C(=O)N2CCC[C@H]2C(=O)N2CCC[C@H]2C(=O)N[C@@H]([C@@H](C)CC)C(=O)N1C)C(N)=O
B6: Example 35: KIC+SRS-((tBu)A)-PPI-((N-Me)C)+IPD-NH2 (peptide)
peptide: KICSRS[tBuAla]PPI[NMeC]IPD-NH2
modifications: disulfide 3-11; N-terminus assumed
SMILES: CC[C@H](C)[C@H](NC(=O)[C@@H](N)CCCCN)C(=O)N[C@H]1CSSC[C@@H](C(=O)N[C@H](C(=O)N2CCC[C@H]2C(=O)N[C@@H](CC(=O)O)C(N)=O)[C@@H](C)CC)N(C)C(=O)[C@H]([C@@H](C)CC)NC(=O)[C@@H]2CCCN2C(=O)[C@@H]2CCCN2C(=O)[C@H](CC(C)(C)C)NC(=O)[C@H](CO)NC(=O)[C@H](CCCNC(=N)N)NC(=O)[C@H](CO)NC1=O
B7: Example 77: (Orn)-IC+SRS-((tBu)A)-PPI-((N-Me)C)+IPD-NH2 (peptide)
peptide: [Orn]ICSRS[tBuAla]PPI[NMeC]IPD-NH2
modifications: disulfide 3-11; N-terminus assumed
SMILES: CC[C@H](C)[C@H](NC(=O)[C@@H](N)CCCN)C(=O)N[C@H]1CSSC[C@@H](C(=O)N[C@H](C(=O)N2CCC[C@H]2C(=O)N[C@@H](CC(=O)O)C(N)=O)[C@@H](C)CC)N(C)C(=O)[C@H]([C@@H](C)CC)NC(=O)[C@@H]2CCCN2C(=O)[C@@H]2CCCN2C(=O)[C@H](CC(C)(C)C)NC(=O)[C@H](CO)NC(=O)[C@H](CCCNC(=N)N)NC(=O)[C@H](CO)NC1=O
B8: Example 65: LIC+SRS-((tBu)A)-PPI-((N-Me)C)+I-NH2 (peptide)
peptide: LICSRS[tBuAla]PPI[NMeC]I-NH2
modifications: disulfide 3-11; N-terminus assumed
SMILES: CC[C@H](C)[C@H](NC(=O)[C@@H]1CSSC[C@H](NC(=O)[C@@H](NC(=O)[C@@H](N)CC(C)C)[C@@H](C)CC)C(=O)N[C@@H](CO)C(=O)N[C@@H](CCCNC(=N)N)C(=O)N[C@@H](CO)C(=O)N[C@@H](CC(C)(C)C)C(=O)N2CCC[C@H]2C(=O)N2CCC[C@H]2C(=O)N[C@@H]([C@@H](C)CC)C(=O)N1C)C(N)=O
B9: Example 49: (Orn)-IC+SRS-((tBu)A)-PPI-(Pen)+IPD-NH2 (peptide)
peptide: [Orn]ICSRS[tBuAla]PPI[Pen]IPD-NH2
modifications: disulfide 3-11; N-terminus assumed
SMILES: CC[C@H](C)[C@H](NC(=O)[C@@H](N)CCCN)C(=O)N[C@H]1CSSC(C)(C)[C@@H](C(=O)N[C@H](C(=O)N2CCC[C@H]2C(=O)N[C@@H](CC(=O)O)C(N)=O)[C@@H](C)CC)NC(=O)[C@H]([C@@H](C)CC)NC(=O)[C@@H]2CCCN2C(=O)[C@@H]2CCCN2C(=O)[C@H](CC(C)(C)C)NC(=O)[C@H](CO)NC(=O)[C@H](CCCNC(=N)N)NC(=O)[C@H](CO)NC1=O
B10: Example 31: AIC+SRS-((tBu)A)-P-((6S)-5-Azaspiro[2.4]heptane-6-carboxylic acid)-I-(Pen)+IPD-OH (peptide)
peptide: AICSRS[tBuAla]P[Pro(4-spirocPr)]I[Pen]IPD-OH
modifications: disulfide 3-11; N-terminus assumed
SMILES: CC[C@H](C)[C@H](NC(=O)[C@H](C)N)C(=O)N[C@H]1CSSC(C)(C)[C@@H](C(=O)N[C@H](C(=O)N2CCC[C@H]2C(=O)N[C@@H](CC(=O)O)C(=O)O)[C@@H](C)CC)NC(=O)[C@H]([C@@H](C)CC)NC(=O)[C@@H]2CC3(CC3)CN2C(=O)[C@@H]2CCCN2C(=O)[C@H](CC(C)(C)C)NC(=O)[C@H](CO)NC(=O)[C@H](CCCNC(=N)N)NC(=O)[C@H](CO)NC1=O
B11: Example 66: (Abu)-IC+SRS-((tBu)A)-PPIC+IPD-NH2 (peptide)
peptide: [Abu]ICSRS[tBuAla]PPICIPD-NH2
modifications: disulfide 3-11; N-terminus assumed
SMILES: CC[C@H](N)C(=O)N[C@H](C(=O)N[C@H]1CSSC[C@@H](C(=O)N[C@H](C(=O)N2CCC[C@H]2C(=O)N[C@@H](CC(=O)O)C(N)=O)[C@@H](C)CC)NC(=O)[C@H]([C@@H](C)CC)NC(=O)[C@@H]2CCCN2C(=O)[C@@H]2CCCN2C(=O)[C@H](CC(C)(C)C)NC(=O)[C@H](CO)NC(=O)[C@H](CCCNC(=N)N)NC(=O)[C@H](CO)NC1=O)[C@@H](C)CC
B12: Example 79: KIC+SRS-((tBu)A)-PPI-((N-Me)C)+I-NH2 (peptide)
peptide: KICSRS[tBuAla]PPI[NMeC]I-NH2
modifications: disulfide 3-11; N-terminus assumed
SMILES: CC[C@H](C)[C@H](NC(=O)[C@@H]1CSSC[C@H](NC(=O)[C@@H](NC(=O)[C@@H](N)CCCCN)[C@@H](C)CC)C(=O)N[C@@H](CO)C(=O)N[C@@H](CCCNC(=N)N)C(=O)N[C@@H](CO)C(=O)N[C@@H](CC(C)(C)C)C(=O)N2CCC[C@H]2C(=O)N2CCC[C@H]2C(=O)N[C@@H]([C@@H](C)CC)C(=O)N1C)C(N)=O
B13: Example 45: AIC+SRS-((tBu)A)-P-((6S)-5-Azaspiro[2.4]heptane-6-carboxylic acid)-I-(Pen)+IPD-NH2 (peptide)
peptide: AICSRS[tBuAla]P[Pro(4-spirocPr)]I[Pen]IPD-NH2
modifications: disulfide 3-11; N-terminus assumed
SMILES: CC[C@H](C)[C@H](NC(=O)[C@H](C)N)C(=O)N[C@H]1CSSC(C)(C)[C@@H](C(=O)N[C@H](C(=O)N2CCC[C@H]2C(=O)N[C@@H](CC(=O)O)C(N)=O)[C@@H](C)CC)NC(=O)[C@H]([C@@H](C)CC)NC(=O)[C@@H]2CC3(CC3)CN2C(=O)[C@@H]2CCCN2C(=O)[C@H](CC(C)(C)C)NC(=O)[C@H](CO)NC(=O)[C@H](CCCNC(=N)N)NC(=O)[C@H](CO)NC1=O
B14: Example 48: AIC+SRS-((tBu)A)-PPI-((N-Me)C)+IPD-NH2 (peptide)
peptide: AICSRS[tBuAla]PPI[NMeC]IPD-NH2
modifications: disulfide 3-11; N-terminus assumed
SMILES: CC[C@H](C)[C@H](NC(=O)[C@H](C)N)C(=O)N[C@H]1CSSC[C@@H](C(=O)N[C@H](C(=O)N2CCC[C@H]2C(=O)N[C@@H](CC(=O)O)C(N)=O)[C@@H](C)CC)N(C)C(=O)[C@H]([C@@H](C)CC)NC(=O)[C@@H]2CCCN2C(=O)[C@@H]2CCCN2C(=O)[C@H](CC(C)(C)C)NC(=O)[C@H](CO)NC(=O)[C@H](CCCNC(=N)N)NC(=O)[C@H](CO)NC1=O

Target: T1, recombinant rat MASP1 active protease …
Test: cell-based or functional assay

First: B1
Second: [Sar]ICSRS[tBuAla]PPI[Pen]IP-{PEG4‑CH2CO2H (15 atoms)-NH2} (disulfide 3-11) [Example 73: ((N-Me)G)-IC+SRS-((tBu)A)-PPI-(Pen)+IP-(PEG4-CH2CO2H (15 atoms))-NH2]
The “rat MASP1 IC50” value of the first is 3.3-fold higher: 140 nM for the first, 43 nM for the second.

Going from B2 to B3, the “rat MASP1 IC50” value falls from 250 nM to 24 nM (10-fold).

B4 and B5 are within 1.5-fold of each other in “rat MASP1 IC50” value: 16 nM for the first, 12 nM for the second.

B6 and B7 are within 1.5-fold of each other in “rat MASP1 IC50” value: 46 nM for the first, 66 nM for the second.

Going from B8 to B9, the “rat MASP1 IC50” value rises from 7.2 nM to 60 nM (8.3-fold).

First: [Sar]ICSRS[tBuAla]PPI[Pen]IP-{PEG8-NH2} (disulfide 3-11) [Example 74: ((N-Me)G)-IC+SRS-((tBu)A)-PPI-(Pen)+IP-(PEG8(28 atoms))-NH2]
Second: B10
The “rat MASP1 IC50” value of the first is 3.2-fold higher: 71 nM for the first, 22 nM for the second.

[Orn]ICSRS[tBuAla]PPI[NMeC]IPD-NH2 (disulfide 3-11; also: HCl salt) [Example 78: (Orn)-IC+SRS-((tBu)A)-PPI-((N-Me)C)+IPD-NH2 (HCl salt)] and B11 are within 1.5-fold of each other in “rat MASP1 IC50” value: 48 nM for the first, 70 nM for the second.

First: B12
Second: B13
The “rat MASP1 IC50” value of the first is 2.1-fold higher: 85 nM for the first, 40 nM for the second.

For B14, the “rat MASP1 IC50” value was 51.5 nM.
